{"source": "paper doi:10.1101/054106", "about": "“Glu-370 in the Large Subunit Influences the Substrate Binding, Allosteric, and Heat Stability Properties of Potato ADP-glucose Pyrophosphorylase” (bioRxiv, 2016)", "proteins": {"B1": {"name": "potato ADP-glucose pyrophosphorylase (AGPase) small subunit, wild type (enzyme, potato (S. tuberosum), UniProt P23509 1-521, looked up)", "chain": "VSDSQNSQTCLDPDASRSVLGIILGGGAGTRLYPLTKKRAKPAVPLGANYRLIDIPVSNCLNSNISKIYVLTQFNSASLNRHLSRAYASNMGGYKNEGFVEVLAAQQSPENPDWFQGTADAVRQYLWLFEEHTVLEYLILAGDHLYRMDYEKFIQAHRETDADITVAALPMDEKRATAFGLMKIDEEGRIIEFAEKPQGEQLQAMKVDTTILGLDDKRAKEMPFIASMGIYVISKDVMLNLLRDKFPGANDFGSEVIPGATSLGMRVQAYLYDGYWEDIGTIEAFYNANLGITKKPVPDFSFYDRSAPIYTQPRYLPPSKMLDADVTDSVIGEGCVIKNCKIHHSVVGLRSCISEGAIIEDSLLMGADYYETDADRKLLAAKGSVPIGIGKNCHIKRAIIDKNARIGDNVKIINKDNVQEAARETDGYFIKSGIVTVIKDALIPSGIII", "notes": "Small subunit of potato (Solanum tuberosum) tuber ADP-glucose pyrophosphorylase, cDNA in plasmid pML10; as far as I recall it lacks the transit peptide; also called SS; SS^WT; source: E. coli AC70R1-504 (glgC-), plasmid pML10, co-expressed with LS (pML7), in cell-free extract"}}, "biological_target": "the molecule itself", "assay": "non-reducing SDS-PAGE with Western blot; cell-free extracts in Laemmli sample buffer without reducing agent, 10% SDS-PAGE, Western blot with anti-LS and anti-SS antibodies; shows disulfide-linked dimers only", "data": [{"protein": "B1", "values": [{"measurement": "stoichiometry N", "result": 2}]}]}
